Laboratory results from patent US11402384B2 (Duke University, priority 2015, dated 2022).

Assay: Ratiometric fluorescence glucose titration of fluorescent conjugates
Type: binding
Set-up: key to Shape (fluorescence response to glucose) / Change (fluorescence response to glucose): m, monochromatic; d, dichromatic (i.e. spectral shape change); 0, no change
Details: tsGBP 13C affinity mutants, Acrylodan or Badan conjugates
How it was run: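 Single-cysteine glucose-binding protein mutants labelled site-specifically with thiol-reactive environmentally sensitive fluorophores; emission spectra recorded during glucose titration to detect ligand-mediated intensity and spectral-shape changes for ratiometric read-out. Temperature- and ligand-dependent fluorescence landscapes acquired in 1K steps; binding fitted to single-site fractional saturation.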

| Molecule | Change (fluorescence response to glucose) |
| --- | --- |
| W8Y A: tsGBP2.13C.W8Y (SEQ ID NO: 39) Acrylodan conjugate (conjugate, Acrylodan conjugate; tsGBP2.13C.W8Y (13C, 8Y double substitution mutant with signal peptide replaced with M and a GGSHHHHHH at C-terminus)) MKLEIFSYWAGDCGPALEALIRLYKQKYPGVEVINATVTGGAGVNAKAVLKTRMLGGDPPDTFQVHAGQELIGTWVVADRMEDLTSLFRQEGWLQAFPKGLIDLLSYKGGIWSVPVNIHRSNVMWYIPAKLKEWGVTPPKTWAEFLATAQTLKRKGLEAPLALGENWTQQHLWESVALATLGADGWNNLWSGKLKFTDPKAVAVWETFGKVLDAANKDAAGLSWQQAVDRVVQGKAAFNIMGDWAAGYMSTTLKLKPGTDFAWTPSPGTSGIFMMLSDSFGLPKGAKNRQNAINWLKLVGSKEGQDTFNPLKGSIAARLDSDPAKYNAYGQSAMKDWKSNRIVGSLVHGAVAPESFMSQFGTVMEIFLQSRNPQAAANAAQAIANQVGLGRGGSHHHHHH | m/d^c |
| W9M A: tsGBP2.13C.W9M (SEQ ID NO: 41) Acrylodan conjugate (conjugate, Acrylodan conjugate; tsGBP2.13C.W9M (13C 9M double substitution mutant with signal peptide replaced with M and a GGSHHHHHH at C-terminus)) MKLEIFSWMAGDCGPALEALIRLYKQKYPGVEVINATVTGGAGVNAKAVLKTRMLGGDPPDTFQVHAGQELIGTWVVADRMEDLTSLFRQEGWLQAFPKGLIDLLSYKGGIWSVPVNIHRSNVMWYIPAKLKEWGVTPPKTWAEFLATAQTLKRKGLEAPLALGENWTQQHLWESVALATLGADGWNNLWSGKLKFTDPKAVAVWETFGKVLDAANKDAAGLSWQQAVDRVVQGKAAFNIMGDWAAGYMSTTLKLKPGTDFAWTPSPGTSGIFMMLSDSFGLPKGAKNRQNAINWLKLVGSKEGQDTFNPLKGSIAARLDSDPAKYNAYGQSAMKDWKSNRIVGSLVHGAVAPESFMSQFGTVMEIFLQSRNPQAAANAAQAIANQVGLGRGGSHHHHHH | m |
| W9F B: tsGBP2.13C.W9F (SEQ ID NO: 40) Badan conjugate (conjugate, Badan conjugate; tsGBP2.13C.W9F (13C 9F double substitution mutant with signal peptide replaced with M and a GGSHHHHHH at C-terminus)) MKLEIFSWFAGDCGPALEALIRLYKQKYPGVEVINATVTGGAGVNAKAVLKTRMLGGDPPDTFQVHAGQELIGTWVVADRMEDLTSLFRQEGWLQAFPKGLIDLLSYKGGIWSVPVNIHRSNVMWYIPAKLKEWGVTPPKTWAEFLATAQTLKRKGLEAPLALGENWTQQHLWESVALATLGADGWNNLWSGKLKFTDPKAVAVWETFGKVLDAANKDAAGLSWQQAVDRVVQGKAAFNIMGDWAAGYMSTTLKLKPGTDFAWTPSPGTSGIFMMLSDSFGLPKGAKNRQNAINWLKLVGSKEGQDTFNPLKGSIAARLDSDPAKYNAYGQSAMKDWKSNRIVGSLVHGAVAPESFMSQFGTVMEIFLQSRNPQAAANAAQAIANQVGLGRGGSHHHHHH | 0 |
| Q64M A: tsGBP2.13C.Q64M (SEQ ID NO: 45) Acrylodan conjugate (conjugate, Acrylodan conjugate; tsGBP2.13C.Q64M (13C, 64M double substitution mutant with signal peptide replaced with M and a GGSHHHHHH at C-terminus)) MKLEIFSWWAGDCGPALEALIRLYKQKYPGVEVINATVTGGAGVNAKAVLKTRMLGGDPPDTFMVHAGQELIGTWVVADRMEDLTSLFRQEGWLQAFPKGLIDLLSYKGGIWSVPVNIHRSNVMWYIPAKLKEWGVTPPKTWAEFLATAQTLKRKGLEAPLALGENWTQQHLWESVALATLGADGWNNLWSGKLKFTDPKAVAVWETFGKVLDAANKDAAGLSWQQAVDRVVQGKAAFNIMGDWAAGYMSTTLKLKPGTDFAWTPSPGTSGIFMMLSDSFGLPKGAKNRQNAINWLKLVGSKEGQDTFNPLKGSIAARLDSDPAKYNAYGQSAMKDWKSNRIVGSLVHGAVAPESFMSQFGTVMEIFLQSRNPQAAANAAQAIANQVGLGRGGSHHHHHH | m/d |
| Q64M B: tsGBP2.13C.Q64M (SEQ ID NO: 45) Badan conjugate (conjugate, Badan conjugate; tsGBP2.13C.Q64M (13C, 64M double substitution mutant with signal peptide replaced with M and a GGSHHHHHH at C-terminus)) MKLEIFSWWAGDCGPALEALIRLYKQKYPGVEVINATVTGGAGVNAKAVLKTRMLGGDPPDTFMVHAGQELIGTWVVADRMEDLTSLFRQEGWLQAFPKGLIDLLSYKGGIWSVPVNIHRSNVMWYIPAKLKEWGVTPPKTWAEFLATAQTLKRKGLEAPLALGENWTQQHLWESVALATLGADGWNNLWSGKLKFTDPKAVAVWETFGKVLDAANKDAAGLSWQQAVDRVVQGKAAFNIMGDWAAGYMSTTLKLKPGTDFAWTPSPGTSGIFMMLSDSFGLPKGAKNRQNAINWLKLVGSKEGQDTFNPLKGSIAARLDSDPAKYNAYGQSAMKDWKSNRIVGSLVHGAVAPESFMSQFGTVMEIFLQSRNPQAAANAAQAIANQVGLGRGGSHHHHHH | m |
| W9F A: tsGBP2.13C.W9F (SEQ ID NO: 40) Acrylodan conjugate (conjugate, Acrylodan conjugate; tsGBP2.13C.W9F (13C 9F double substitution mutant with signal peptide replaced with M and a GGSHHHHHH at C-terminus)) MKLEIFSWFAGDCGPALEALIRLYKQKYPGVEVINATVTGGAGVNAKAVLKTRMLGGDPPDTFQVHAGQELIGTWVVADRMEDLTSLFRQEGWLQAFPKGLIDLLSYKGGIWSVPVNIHRSNVMWYIPAKLKEWGVTPPKTWAEFLATAQTLKRKGLEAPLALGENWTQQHLWESVALATLGADGWNNLWSGKLKFTDPKAVAVWETFGKVLDAANKDAAGLSWQQAVDRVVQGKAAFNIMGDWAAGYMSTTLKLKPGTDFAWTPSPGTSGIFMMLSDSFGLPKGAKNRQNAINWLKLVGSKEGQDTFNPLKGSIAARLDSDPAKYNAYGQSAMKDWKSNRIVGSLVHGAVAPESFMSQFGTVMEIFLQSRNPQAAANAAQAIANQVGLGRGGSHHHHHH | m |
| W9M B: tsGBP2.13C.W9M (SEQ ID NO: 41) Badan conjugate (conjugate, Badan conjugate; tsGBP2.13C.W9M (13C 9M double substitution mutant with signal peptide replaced with M and a GGSHHHHHH at C-terminus)) MKLEIFSWMAGDCGPALEALIRLYKQKYPGVEVINATVTGGAGVNAKAVLKTRMLGGDPPDTFQVHAGQELIGTWVVADRMEDLTSLFRQEGWLQAFPKGLIDLLSYKGGIWSVPVNIHRSNVMWYIPAKLKEWGVTPPKTWAEFLATAQTLKRKGLEAPLALGENWTQQHLWESVALATLGADGWNNLWSGKLKFTDPKAVAVWETFGKVLDAANKDAAGLSWQQAVDRVVQGKAAFNIMGDWAAGYMSTTLKLKPGTDFAWTPSPGTSGIFMMLSDSFGLPKGAKNRQNAINWLKLVGSKEGQDTFNPLKGSIAARLDSDPAKYNAYGQSAMKDWKSNRIVGSLVHGAVAPESFMSQFGTVMEIFLQSRNPQAAANAAQAIANQVGLGRGGSHHHHHH | m^c |
| W8Y B: tsGBP2.13C.W8Y (SEQ ID NO: 39) Badan conjugate (conjugate, Badan conjugate; tsGBP2.13C.W8Y (13C, 8Y double substitution mutant with signal peptide replaced with M and a GGSHHHHHH at C-terminus)) MKLEIFSYWAGDCGPALEALIRLYKQKYPGVEVINATVTGGAGVNAKAVLKTRMLGGDPPDTFQVHAGQELIGTWVVADRMEDLTSLFRQEGWLQAFPKGLIDLLSYKGGIWSVPVNIHRSNVMWYIPAKLKEWGVTPPKTWAEFLATAQTLKRKGLEAPLALGENWTQQHLWESVALATLGADGWNNLWSGKLKFTDPKAVAVWETFGKVLDAANKDAAGLSWQQAVDRVVQGKAAFNIMGDWAAGYMSTTLKLKPGTDFAWTPSPGTSGIFMMLSDSFGLPKGAKNRQNAINWLKLVGSKEGQDTFNPLKGSIAARLDSDPAKYNAYGQSAMKDWKSNRIVGSLVHGAVAPESFMSQFGTVMEIFLQSRNPQAAANAAQAIANQVGLGRGGSHHHHHH | 0 |
| W9Y B: tsGBP2.13C.W9Y (SEQ ID NO: 42) Badan conjugate (conjugate, Badan conjugate; tsGBP2.13C.W9Y (13C, 9Y double substitution mutant with signal peptide replaced with M and a GGSHHHHHH at C-terminus)) MKLEIFSWYAGDCGPALEALIRLYKQKYPGVEVINATVTGGAGVNAKAVLKTRMLGGDPPDTFQVHAGQELIGTWVVADRMEDLTSLFRQEGWLQAFPKGLIDLLSYKGGIWSVPVNIHRSNVMWYIPAKLKEWGVTPPKTWAEFLATAQTLKRKGLEAPLALGENWTQQHLWESVALATLGADGWNNLWSGKLKFTDPKAVAVWETFGKVLDAANKDAAGLSWQQAVDRVVQGKAAFNIMGDWAAGYMSTTLKLKPGTDFAWTPSPGTSGIFMMLSDSFGLPKGAKNRQNAINWLKLVGSKEGQDTFNPLKGSIAARLDSDPAKYNAYGQSAMKDWKSNRIVGSLVHGAVAPESFMSQFGTVMEIFLQSRNPQAAANAAQAIANQVGLGRGGSHHHHHH | m |
